According to US20120316071A1 (published 2012):

B1: Fab VH1-46_IGHD6-6*01_IGHJ1*01 S102A/S103P/S104F/H111F (APFF) & L6_IGKJ1*01 (Fab, V domains shown)
VH: QVQLVQSGAEVKKPGASVKVSCKASGYTFTSYYMHWVRQAPGQGLEWMGIINPSGGSTSYAQKFQGRVTMTRDTSTSTVYMELSSLRSEDTAVYYCAREEYAPFSAEYFQFWGQGTLVTVSS
VL: not shown
notes: Fab made in E. coli; The constant parts (CH1 with His6 and Flag tags from plasmid A, kappa CL from plasmid C) are not added here; also called H:APFF & L:wt; APFF & parent
B2: Fab VH1-46_IGHD6-6*01_IGHJ1*01 S102A/S103P/S104F/H111F (APFF) & L6_IGKJ1*01 S30T (Fab, V domains shown)
VH: QVQLVQSGAEVKKPGASVKVSCKASGYTFTSYYMHWVRQAPGQGLEWMGIINPSGGSTSYAQKFQGRVTMTRDTSTSTVYMELSSLRSEDTAVYYCAREEYAPFSAEYFQFWGQGTLVTVSS
VL: EIVLTQSPATLSLSPGERATLSCRASQSVTSYLAWYQQKPGQAPRLLIYDASNRATGIPARFSGSGSGTDFTLTISSLEPEDFAVYYCQQRSNWPPWTFGQGTKVEIKR
notes: Fab made in E. coli; The constant parts (CH1 with His6 and Flag tags from plasmid A, kappa CL from plasmid C) are not added here; also called APFF & S30T
B3: Fab VH1-46_IGHD6-6*01_IGHJ1*01 S102A/S103P/S104F/H111F (APFF) & L6_IGKJ1*01 S31N (Fab, V domains shown)
VH: QVQLVQSGAEVKKPGASVKVSCKASGYTFTSYYMHWVRQAPGQGLEWMGIINPSGGSTSYAQKFQGRVTMTRDTSTSTVYMELSSLRSEDTAVYYCAREEYAPFSAEYFQFWGQGTLVTVSS
VL: EIVLTQSPATLSLSPGERATLSCRASQSVSNYLAWYQQKPGQAPRLLIYDASNRATGIPARFSGSGSGTDFTLTISSLEPEDFAVYYCQQRSNWPPWTFGQGTKVEIKR
notes: Fab made in E. coli; The constant parts (CH1 with His6 and Flag tags from plasmid A, kappa CL from plasmid C) are not added here; also called APFF & S31N
B4: Fab VH1-46_IGHD6-6*01_IGHJ1*01 S102A/S103P/S104F/H111F (APFF) & L6_IGKJ1*01 S31Q (Fab, V domains shown)
VH: QVQLVQSGAEVKKPGASVKVSCKASGYTFTSYYMHWVRQAPGQGLEWMGIINPSGGSTSYAQKFQGRVTMTRDTSTSTVYMELSSLRSEDTAVYYCAREEYAPFSAEYFQFWGQGTLVTVSS
VL: EIVLTQSPATLSLSPGERATLSCRASQSVSQYLAWYQQKPGQAPRLLIYDASNRATGIPARFSGSGSGTDFTLTISSLEPEDFAVYYCQQRSNWPPWTFGQGTKVEIKR
notes: Fab made in E. coli; The constant parts (CH1 with His6 and Flag tags from plasmid A, kappa CL from plasmid C) are not added here; also called APFF & S31Q
B5: Fab VH1-46_IGHD6-6*01_IGHJ1*01 S102A/S103P/S104F/H111F (APFF) & L6_IGKJ1*01 S30A (Fab, V domains shown)
VH: QVQLVQSGAEVKKPGASVKVSCKASGYTFTSYYMHWVRQAPGQGLEWMGIINPSGGSTSYAQKFQGRVTMTRDTSTSTVYMELSSLRSEDTAVYYCAREEYAPFSAEYFQFWGQGTLVTVSS
VL: EIVLTQSPATLSLSPGERATLSCRASQSVASYLAWYQQKPGQAPRLLIYDASNRATGIPARFSGSGSGTDFTLTISSLEPEDFAVYYCQQRSNWPPWTFGQGTKVEIKR
notes: Fab made in E. coli; The constant parts (CH1 with His6 and Flag tags from plasmid A, kappa CL from plasmid C) are not added here; also called APFF & S30A
B6: Fab VH1-46_IGHD6-6*01_IGHJ1*01 S102A/S103P/S104F/H111F (APFF) & L6_IGKJ1*01 S30R (Fab, V domains shown)
VH: QVQLVQSGAEVKKPGASVKVSCKASGYTFTSYYMHWVRQAPGQGLEWMGIINPSGGSTSYAQKFQGRVTMTRDTSTSTVYMELSSLRSEDTAVYYCAREEYAPFSAEYFQFWGQGTLVTVSS
VL: EIVLTQSPATLSLSPGERATLSCRASQSVRSYLAWYQQKPGQAPRLLIYDASNRATGIPARFSGSGSGTDFTLTISSLEPEDFAVYYCQQRSNWPPWTFGQGTKVEIKR
notes: Fab made in E. coli; The constant parts (CH1 with His6 and Flag tags from plasmid A, kappa CL from plasmid C) are not added here; also called APFF & S30R
B7: Fab VH1-46_IGHD6-6*01_IGHJ1*01 S102A/S103P/S104F/H111F (APFF) & L6_IGKJ1*01 S31A (Fab, V domains shown)
VH: QVQLVQSGAEVKKPGASVKVSCKASGYTFTSYYMHWVRQAPGQGLEWMGIINPSGGSTSYAQKFQGRVTMTRDTSTSTVYMELSSLRSEDTAVYYCAREEYAPFSAEYFQFWGQGTLVTVSS
VL: EIVLTQSPATLSLSPGERATLSCRASQSVSAYLAWYQQKPGQAPRLLIYDASNRATGIPARFSGSGSGTDFTLTISSLEPEDFAVYYCQQRSNWPPWTFGQGTKVEIKR
notes: Fab made in E. coli; The constant parts (CH1 with His6 and Flag tags from plasmid A, kappa CL from plasmid C) are not added here; also called APFF & S31A
B8: Fab VH1-46_IGHD6-6*01_IGHJ1*01 S102A/S103P/S104F/H111F (APFF) & L6_IGKJ1*01 S30N (Fab, V domains shown)
VH: QVQLVQSGAEVKKPGASVKVSCKASGYTFTSYYMHWVRQAPGQGLEWMGIINPSGGSTSYAQKFQGRVTMTRDTSTSTVYMELSSLRSEDTAVYYCAREEYAPFSAEYFQFWGQGTLVTVSS
VL: EIVLTQSPATLSLSPGERATLSCRASQSVNSYLAWYQQKPGQAPRLLIYDASNRATGIPARFSGSGSGTDFTLTISSLEPEDFAVYYCQQRSNWPPWTFGQGTKVEIKR
notes: Fab made in E. coli; The constant parts (CH1 with His6 and Flag tags from plasmid A, kappa CL from plasmid C) are not added here; also called APFF & S30N
B9: Fab VH1-46_IGHD6-6*01_IGHJ1*01 S102A/S103P/S104F/H111F (APFF) & L6_IGKJ1*01 S31F (Fab, V domains shown)
VH: QVQLVQSGAEVKKPGASVKVSCKASGYTFTSYYMHWVRQAPGQGLEWMGIINPSGGSTSYAQKFQGRVTMTRDTSTSTVYMELSSLRSEDTAVYYCAREEYAPFSAEYFQFWGQGTLVTVSS
VL: EIVLTQSPATLSLSPGERATLSCRASQSVSFYLAWYQQKPGQAPRLLIYDASNRATGIPARFSGSGSGTDFTLTISSLEPEDFAVYYCQQRSNWPPWTFGQGTKVEIKR
notes: Fab made in E. coli; The constant parts (CH1 with His6 and Flag tags from plasmid A, kappa CL from plasmid C) are not added here; also called APFF & S31F
B10: Fab VH1-46_IGHD6-6*01_IGHJ1*01 S102A/S103P/S104F/H111F (APFF) & L6_IGKJ1*01 S31I (Fab, V domains shown)
VH: QVQLVQSGAEVKKPGASVKVSCKASGYTFTSYYMHWVRQAPGQGLEWMGIINPSGGSTSYAQKFQGRVTMTRDTSTSTVYMELSSLRSEDTAVYYCAREEYAPFSAEYFQFWGQGTLVTVSS
VL: EIVLTQSPATLSLSPGERATLSCRASQSVSIYLAWYQQKPGQAPRLLIYDASNRATGIPARFSGSGSGTDFTLTISSLEPEDFAVYYCQQRSNWPPWTFGQGTKVEIKR
notes: Fab made in E. coli; The constant parts (CH1 with His6 and Flag tags from plasmid A, kappa CL from plasmid C) are not added here; also called APFF & S31I

The binders below were run against T1, Recombinant Human DLL4 (delta-like protein 4) (human, UniProt Q9NR61 27-524) (assay: ECL (MSD) multispot binding assay, antigen spotted on plate, Fab in solution;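 note: purified Fab incubated 1 h at 20 °C, detected via TAG-labelled antibody electrochemiluminescence, antigen spot compared with the blank in the same well, ratio at least 4 counted as hit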).
T1 construct: Bought recombinant human DLL4 (R&D Systems Cat#1506-D4/CF); also called rHuman DLL4

Q: Which Signal/Blank does the source give for B1 here?
A: 389

Q: For B2, which “ECL signal” value is on record?
A: 136000

Q: And the Signal/Blank?
A: 348

Q: Which “ECL signal” value does the source give for B3 here?
A: 178000

Q: What about the Signal/Blank of the same binder?
A: 605

Q: For B4, which “ECL signal” value is on record?
A: 165000

Q: What about the Signal/Blank of the same binder?
A: 406

Q: What does the source list for B5?
A: ECL signal: 187000; Signal/Blank: 1010

Q: With B6 as the binder, how does the “ECL signal” value read?
A: 189000

Q: What about the Signal/Blank of the same binder?
A: 682

Q: B7 was tested. Which Signal/Blank did it give?
A: 882

Q: What does the source list for B8?
A: ECL signal: 175000; Signal/Blank: 497

Q: Which Signal/Blank does the source give for B9 here?
A: 459

Q: For B10, which Signal/Blank is on record?
A: 541
